Three substances from patent publication US20140294821 can be followed below.

Series [1] relates to rBDD FVIII (recombinant B-domain deleted FVIII lacking Fc moieties).
For series [2], the system named is rFVIIIFc (recombinant B-domain deleted human FVIII-Fc monomer hybrid), drug substance.
Series [3] concerns single chain rFVIIIFc (purified non-processed isoform of rFVIIIFc).

For activated Factor IX, in series [1], the “FXa generation rate (nM/min) against FIXa concentration (Xase complex on phospholipid vesicles)” value is “BDD FVIII (triangles, solid Kd fits, two runs): rate rises from about 0.2 nM/min at about 0.25 nM FIXa to about 2.5 to 2.7 nM/min at about 5.6 nM, points at 8 nM about 2.0 to 2.1; the fits still rise at 8 nM (about 2.5 to 2.6), no upper plateau in the range shown”; the Km (nM) (called Kd in the text) of FXa generation rate as a function of FIXa concentration (thrombin-activated FVIII, 25% PS-75% PC vesicles) stood at 2.5 nM; the Vmax (nM/min) of FXa generation rate as a function of FIXa concentration was 4 nM/min. In series [2], the “FXa generation rate (nM/min) against FIXa concentration (Xase complex on phospholipid vesicles)” value is recorded as “FVIIIFc (circles, dashed Kd fits, two runs): rate rises from about 0.2 nM/min at about 0.25 nM FIXa to about 2.8 to 3.2 nM/min at 4 to 8 nM; the fits still rise at 8 nM (about 3.3), no upper plateau in the range shown”.

As to activated protein C, the “FXa generation rate after thrombin activation and incubation with APC” value in series [1] was “Treatment with APC for 90 min led to a significant decrease in FXa generation rates, similar to non-activated samples, and these results were similar for rFVIIIFc DS, rBDD FVIII, and single chain rFVIIIFc”; in series [3] it was “Treatment with APC for 90 min led to a significant decrease in FXa generation rates, similar to non-activated samples, and these results were similar for rFVIIIFc DS, rBDD FVIII, and single chain rFVIIIFc”; in series [2], “Treatment with APC for 90 min led to a significant decrease in FXa generation rates, similar to non-activated samples, and these results were similar for rFVIIIFc DS, rBDD FVIII, and single chain rFVIIIFc”.

Take human α-thrombin: in series [1], the “loss of SPR response of vWF-bound rBDD FVIII after α-thrombin (double reference-subtracted release phase)” value was “response falls faster and deeper with rising α-thrombin (0.005 to 20 U/mL): at 20 U/mL to about -415 RU at 120 s at 25 °C and to about -425 RU at 37°C; the lowest concentrations stay within about -60 RU of 0”; the “release rate (RU/s) of rBDD FVIII from immobilized vWF against time, by α-thrombin concentration” value is “peak release rate grows and comes earlier with rising α-thrombin: uppermost trace (20 U/mL) peaks at about 105 RU/s near 2 s at 25 °C and at about 157 RU/s near 2 s at 37 °C”. Further, the “release rate (RU/s) of SC rFVIIIFc from immobilized vWF against time, by α-thrombin concentration” value in series [3] was “peak release rate grows with rising α-thrombin: uppermost trace (20 U/mL) peaks at about 112 RU/s near 3 s at 37°C; the 25 °C panel as drawn peaks at about 145 RU/s near 3 s and looks the same as the rFVIIIFc 25 °C panel, which does not agree with Figure 16E (about 82 RU/s at 20 U/mL)”. The “release rate (RU/s) of rFVIIIFc from immobilized vWF against time, by α-thrombin concentration” value in series [2] is “peak release rate grows and comes earlier with rising α-thrombin: uppermost trace (20 U/mL) peaks at about 145 RU/s near 3 s at 25 °C and at about 205 RU/s near 2 s at 37 °C”.
